From US20100166759A1

The binders below were run against MT2 protein (from Sigma) (UniProt P02795) (assay: SPR (BIAcoreX), MT2 immobilised on CM5 chip, peptide injected).

Row | Binder | Kd | koff | kon
1 | AQGSICKGASDKSS [MTAcc peptide] | 89.5 nM | 0.0004 s⁻¹ | 4540 M⁻¹ s⁻¹
2 | SAGSCKCKESKSTS [MTBcc peptide] | 160 nM | 0.000501 s⁻¹ | 2830 M⁻¹ s⁻¹
3 | KKSSCSCSPVGSAK [MTAn peptide] | 367 nM | 0.00574 s⁻¹ | 15700 M⁻¹ s⁻¹
